According to publication PMC9394524:

Target: Kel1 (UniProt P38853)
Experiment: GFP-trap IP of Kel1-GFP, anti-FLAG blot
Details: reference: wild-type Sst2-3xFLAG; sites S539

- binding against the reference: stronger
Substance: RGS Sst2 (from UniProt P11972) S539A
